Source: the domain aggregation screens of Martell et al. (2025)

Assay: soluble fraction after stress (log2 fold change); higher = more stays soluble; pooled small domains, quantitative proteomics
Conditions: stress: 75 degC
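Further: 20 min heating vs room temperature control held 20 min.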

HMNQYRKLDGDVQNQIIYILSEYPKLPATIVYQRLLDTNTIVKKDVSLSTVNRFVQKYKDSKGIT
soluble fraction (log2): -1.19

HMNREDYIKAIFKIAEREGEASNQRIADSLGVSRASASEMVKKLIQEGFVVAEGRQLSLSAEGERIA
soluble fraction (log2): -0.185

HMNREEKKALTRRQIIDVATRLFRQHGIHNTDLKTIATEAGVSVVTFYKYFDSKEALIGTIAAEQ
soluble fraction (log2): -0.804

HMNRNHVFDSNGPDLRLRGTAQQLFEKYLQLGRDATSGGDRVMAEGYFQHAEHYFRILNAMNQAAMQH
soluble fraction (log2): -1.15

HMNRPYETLFTGLTTDEASAIVGKLEEYGAADYKIEGDTIKVPAAQEPDLKAKLLLDGYPKS
soluble fraction (log2): 0.231

HMNRTEYMAALRRALSVLPEEERASALRYYEEYFDDAGPENEEKVIADLGAPEKVAGQILADYRE
soluble fraction (log2): 0.0934

HMNSDQMKEHLDNLVDMAKKNDNTLIDTEIVNYFVGKPDIELNTDMMTKIFDYLDEHHVAVLS
soluble fraction (log2): 0.146

HMNSEFPFNGGRIVDNVPANRLQIFFDEKPDADVRTRLKQNGFRWAPNSGAWQSYRHGYTLDWARREFNA
soluble fraction (log2): -0.136

HMNSEPKTKLQEIAQERGLAAPVYETTHTGPDHDRIFSASVTVGDVVAAGEARSRKGAESEAAIAAIKALG
soluble fraction (log2): 0.195

HMNSFGWESLIDKEGIADTDLHPSGWVRIDDRRIFVVSEGDFIDKGSGVTVLSVDGNRVVVRELI
soluble fraction (log2): -1.38

HMNSHLEEGRHGLQIGDPGIVRARIESDPEGETDMPVVVIDGRNISWNEFGRMVATYTGFQFKLEM
soluble fraction (log2): -0.629

HMNSHQNELDNALTEAHTASRRLLEGTDEYLDLSSQPAYIRRLQHLLAQKYNLGSLSSGVEPNRHIRLLQ
soluble fraction (log2): -0.265

HMNSIDIENELVKIIEKNGQPMSFDDLVFKLDSLYSTRYKFAKGYIRTIILNSNRIASIGKTSTYSLYKWN
soluble fraction (log2): -3.12

HMNSKKETLLSYLYNHSTWSSRNDLSNFLNVSTRQVTNYINEINKNETIVLSSNKGYKINPKFIGKN
soluble fraction (log2): -1.61

HMNSKMTYSDLIGNIEQGNVSSVELASDGKSATVTLTDNSQKQVNIPSLDSFVTYVQDHIKAGTLSVEE
soluble fraction (log2): 0.344

HMNSKSDDELLSKTTSLLIHAAKIDENYTDKEKEIIKKTLIQLGVKESKADQIMLTAEINEE
soluble fraction (log2): ≥ 1.04

HMNSKYILLQVSDIPKTSLVLERQFGVTEYSVQDEHTLRIYDTSLDMAAVNKALVVQDIAVISSQL
soluble fraction (log2): -1.69

HMNSLFPLSLKYLREQANITQAELAQKLDVTQQAVGRWERGQTSPDYETLKRLSVLFNVSVDYLLGV
soluble fraction (log2): -1.1

HMNSNIIKTINDELSIRKGKYGPYIMYKTKKMKRPKFKSIGDNTPDEFLADKGSISEIILWIN
soluble fraction (log2): -0.527

HMNSSHRLIGLDPGLRVTGWGIVDAIGTKLVHVANGSVKSQQNAPLATRLLELENGLEEVFDNWQPDFA
soluble fraction (log2): 0.034

HMNSVLPQEVKSSLNDFFTKYAPGSIAQKLINHASFTGGKVVVTGVELTQTQADDLKKAFKDKFF
soluble fraction (log2): -0.00219

HMNSVTLEHIVYDFRVFNMLKGSGINDIDELIKAAEDGRLFKIIGSNLTYKRIKKSAAEFGVILPDKPG
soluble fraction (log2): -2.25

HMNSVYTPDPKELAKAIKIVTAAREAEQKGQGVIAVDGRMVDAPVVSQALRILELARLAGMEVSE
soluble fraction (log2): 0.0743

HMNTAIPIAIDQLRIGMYIQLGLNWMSHPFPVSSFRIASESQIEILRGLGLAEVRYVPAKSDPVP
soluble fraction (log2): -3.26

HMNTDEYEQKRGEILDAAQRLIYTKGYERMSIQDILDELKISKGAFYHYFDSKQSLLEALTARMMTE
soluble fraction (log2): -0.44

HMNTDIHRLLDEAFVRVDMTPDAQHLKEEIRANLVARVDELEASGVPSADAARRAIAELGDVRELL
soluble fraction (log2): 0.291

HMNTFDLSKLEEIILASRDKAMKTKEFTELDNLKNLFITAGLDVQMSKNGIKLIKGPKFNSSLLEDF
soluble fraction (log2): -0.878

HMNTIIIDILPKGLSIAGNQTEPKSLIQQLLMARRADPAQPILLRPAIAVPVQNVVELIDRLTAAGI
soluble fraction (log2): -0.306

HMNTISEADAKRIALERAGLTAADYVKVDYDQDDNEYEVEMRSGNTEYEVKISGSTGAVLEYDSETD
soluble fraction (log2): -0.358

HMNTISTLEITTKKDIRILDESELLKSKSSKNNIFNYLLASGDFNLLKDKLNEIDEFSDEIISYQLN
soluble fraction (log2): -0.788

HMNTKQRTAVMRILKQSSDPVSADDVFAALKDEYPSLALSTVYRNLERFADESMVKKDVWSDGIVRYSLAD
soluble fraction (log2): -0.21

HMNTLGTNIAKLRESQKLTQEELGKLSGVSRVSIYKIETGQSTPRDTTLQNIAEALHTTPSALRS
soluble fraction (log2): 0.0781

HMNTLLYAPKVSPNPFTPNADGINDVVNISYKLLRVISAVPISVEVFDLSGRLIKTLYSGVDPLGEY
soluble fraction (log2): 0.194

HMNTLPASVQPKKGRLYAVIQTKENGKSKPVWRSLGLPEGSNKSKVNKAFREVVKQFEEEYAERLAR
soluble fraction (log2): -0.181

HMNTLPTDELMKYGIINEDLSFSKKLNADDIQKFLQGYTIVADNDKNRATFQLTENNTKLKVIFLER
soluble fraction (log2): -0.44

HMNTLRFPEGTPEKDRMSIILASYNSGIGHVNDARRLARLNGEDPNSWEVVARYLQLKAQPEYYESEAVK
soluble fraction (log2): -0.204

HMNTPAENFDKAVEKYKSTNSATEKDAAFKVIEDEWIKLSDEEKKERQDEYDSIFESEGDRV
soluble fraction (log2): 0.0843

HMNTQGWEIFEGRITTADTDLNPSGWIRIDGQRIFVISDAGFIDKGKEVSILSVDGNRVLVRK
soluble fraction (log2): -0.646

HMNTSMIEHMDKSTFIRFVFTNPVTHDQAVAKLMEKHMWFSTEEKAEAEIDKLLNKTNSLIESGGKLTW
soluble fraction (log2): 0.0867

HMNTTLQLDTILRLEKNAHLLENFVRAGFTDSELGKLTDADLLQIGVPKIGDRRRLLAALAERAH
soluble fraction (log2): -0.904

HMNTVSPAVSAQLRQELGGELNNANFQQLQQYLQAGQRDEAIVYLTSLGIESPRAVSIVNNAMDQIG
soluble fraction (log2): 0.494

HMNVDIVEITKNSSPNQISKVIDIGAIQIVEDLMSFGIMKAIDTPLEDSEIEQLLEKYNLIVDLIE
soluble fraction (log2): -2.01

HMNVDSIPGKSGIVTQGIDNLKAMGRVTVNGMEWTARSKDGSLIEEGKVVRVYGVEGVKLIVEED
soluble fraction (log2): 0.0811

HMNVDSLPGEKAVVIKTIDNLRGTGQAVVNGLEWSAKSKDETIIDEGKVVRIVAVEGVKLVVEEE
soluble fraction (log2): 0.0298

HMNVEALIGREGRVTDKIEANGYGRVKVDGDSWKAKSANGAEIRQNTDVRILSIDSVIITVEP
soluble fraction (log2): -0.766

HMNVESLVGKQVIVSETIDNLKATGQVKVNGLEWTARAADETDIIPQGTEVTINEVSGVKLIVSR
soluble fraction (log2): 0.0398

HMNVESMVGKQGKVVVEIDNISAKGMIKVDGMEWTARSVDGEIIPKDSLVAVVSVEGVKAMVRKAE
soluble fraction (log2): -0.106

HMNVGKRLKSLREKYKFSLEEVAKKIKSSAGAISRYENNERKINSESLIRLSNLYNVSPEYILYG
soluble fraction (log2): -0.621

HMNVKQALLELMQRKPELTGSAIARAIGYSPAVISQYLKDGYPGDVVKLTTLIGDFIRRIDEKERS
soluble fraction (log2): -0.526

HMNVKVYATIDGDNFKVSGLKPGSNVRVYSSNGSAVFEKKAGDSEMIIPAGAWTKGIYVISADDQSIKVT
soluble fraction (log2): -0.0855

HMNVLGQTAIVRSLRLDATFGEVLLADGGAGLIFKARTHGDETFKKGDRVVLLEYLKDQHAYRVISETDFL
soluble fraction (log2): -2.45

HMNVLLGISELSHATGVTPAQLRYWVSQGYIKNYGSNKKNKFSLETVFMVRSIKIFQNQGYTLSASAKRAA
soluble fraction (log2): -1.38

HMNVNFVQANLANLPNIQAIYQKGNEMLNDMKRGEAREIDEAYSRVDNGVGTEKDFKVLLSFRDKIIAAMQ
soluble fraction (log2): -0.112

HMNVNSMIGKEGRVIEDIDNFNETGRIIVDGMEWTARAVNEQSITSGQKVVIREIQGVKAMVVPM
soluble fraction (log2): 0.115

HMNVNTNTILKSLMETYPDSTVFKKAEIVSIANSLGFKKSDYSPLTSTDNRTDVRGQYDLSAVIIPMRESN
soluble fraction (log2): -0.14

HMNVPYEMVTQNGEVFYKYKVQPGEGVFAVSRTFSVSVAEILRVNPEANKGLKNGQVLLIPVPKDMIA
soluble fraction (log2): -1.71

HMNVVGAKGRIIKISSSEEKMAVAEIEGHGEWNIRTNSEIELFVGKSVEVIEMKGNYLLVNQI
soluble fraction (log2): -3.01

HMNVWESVDLRQEQHEAKRRLILKQAALLFADRGFHETTIDQIAEALNVTKPTIYYYIESKEDLLYQVA
soluble fraction (log2): -0.135

HMNWQLITDPKELRELVQKTIADNEAGTSRLREGDMGPLEFLTGIIMKKTRGLADPTMVKALLKEELNI
soluble fraction (log2): -0.0208

HMNYEFLEKIGFSSNEAKVYGTLIKHKVLNGYEIAKLSGVARSLVYEVINRLVAKGAVIRIDGEPNFYKP
soluble fraction (log2): -2.2

HMNYHDTLSYLMDAFGGADNLQKLLGVGPSALSNYRRREHLPLNQARKLSNIAPEFGFNLDPYTLKISVID
soluble fraction (log2): -1.62

HMNYKLESYLKKVDDQLNFIPVSDKADILSELKNTFYERLLNGQTEEEILDEMESPRELALSYMSES
soluble fraction (log2): -0.00676

HMNYTYTVPEGIRYLRADKALALAFPDHSRTALQRAFDSGLVTLRGVAIKRDQSVTALDTLEFAMPDI
soluble fraction (log2): -0.981

HMNYVFVLNEHGVRQTSYVVGLHADTLEKTEKLAKQTYPTSTIISGDSEMQSQFISGKAYVNGEFVDP
soluble fraction (log2): -0.713

HMPAFWILAVLAGGRRHGYQIMREAALSSEGLVTLKPTTLYAALERLERDGAIQQDGEEIVDGRVRRYYRI
soluble fraction (log2): 0.16

HMPAKDAEFTAFVRSATPTLTRTAYLLTGDRETASDLVQEAFVRTYLAWRRVRPEEATAYTRRVLVN
soluble fraction (log2): 0.321

HMPAPMISIQLNGEPRNVQPGISIAALVREIGLEPAKVAVERNREIVPRSTLGDVLIEAGDQLEIVHFVG
soluble fraction (log2): -0.45

HMPAQPEPYNNLARLYSAQGKLDQAASLLRAGLYTDPAYRALFDNLTRIYAEQAARSLSAALD
soluble fraction (log2): -1.1

HMPASDPNEKQILRFLTEHQVITRKETQALLDVSQSTAGRVLKAMVDNGQIKQLGGSRNTRYELPM
soluble fraction (log2): -0.141

HMPASGISSEIIYDGILIEENLRQLKKDKAWLMDQLKKKGISSVSEVFLATLNKGGSLYIDKY
soluble fraction (log2): -0.451

HMPASVSAIRKYLGGGSFKGVGPALAKRIVDAFGEYTIETIENDPKQLAKVKGVSEKMALEINTQ
soluble fraction (log2): -0.582

HMPAYYQKEAVLDGRASVFAYERDPSSWYFKQLIPGTKKYRTKKIQGATTLEQAKSQALDIALGLRDEP
soluble fraction (log2): -0.0971

HMPDDHFIRGYVTAVLEQVLKVPSIQVEVERGVVILRGDLPGEERQELLDAVSRIHGVARVEYIPL
soluble fraction (log2): -0.686

HMPDLSGEEQQIVDILAQRGNLQINTLVVETDIPVHKMNAILFELEMKGVVRVLAGGMYQLL
soluble fraction (log2): -1.02

HMPDPLVEIRSAVHSNYAGMIAMLGADNRVYLGREEHYSYQDGQPGQYDNRDGSLLFVSDQPDIYYFL
soluble fraction (log2): -1.17

HMPEAITLRDLKTYSKQAASGYLDDHQLVLVEKEAHSEDVPEGQVIKQKPGAGASVKPGDKVEVTFSLGPE
soluble fraction (log2): 0.0463

HMPEKKKYGDFVSMTEEEYGKLVSEYGQEAAKRMVEILNNYKGATGKPYKSDYLAILNWVVKRIKEE
soluble fraction (log2): -0.0863
